Data published in the RNAGym collection of RNA variant scans (doi:10.1093/molbev/msab373).

B1: Azoarcus group I ribozyme (parent)
chain: GUGCCUUGCGCCGGGAAACCACGCAAGGGAUGGUGUCAAAUUCGGCGAAACCUAAGCGCCCGCCCGGGCGUAUGGCAACGCCGAGCCAAGCUUCGGCGCCUGCGCCGAUGAAGGUGUAGAGACUAGACGGCACCCACCUAAGGCAAACGCUAUGGUGAAGGCAUAGUCCAGGGAGUGGCGAAAGUCACACAAACCGG

Variants of: B1
Experiment: reverse-splicing fitness (ratio to wild type); higher = more active; in vitro selection; Mg2+ level not given
Procedure, shortened: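 An in vitro group I ribozyme library with randomized positions was T7-transcribed and gel-purified. In triplicate, 10 pmol RNA in EPPS pH 7.5 was reacted with 50 pmoles of a 30-nt RNA substrate for 1 h at 37 °C across several added MgCl2 levels (1–48 mM), then stopped with EDTA. Products were reverse transcribed from a substrate-complementary primer, PCR-amplified and sequenced (HiSeq 4000). Fitness is a variant's read proportion after selection over that before, normalised to wild type.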

Row | Variant | reverse-splicing fitness
1 | A111U A120C A145U C150G | 0.0712
2 | A111U A120C A145U C150A | 0.061
3 | A111U A120C A145G C169U | 0.172
4 | A111U A120C A145G C169G | 0.0095
5 | A111U A120C A145G C169A | 0.0121
6 | A111U A120C C150G C169G U176C | 0.00491
7 | A111U A120C C150G C169G U176A | 0.00683
8 | A111U A120C C150G C169G U176G | 0.00508
9 | A111U A120C A145G C150U U176A | 0.176
10 | A111U A120C A145G C150U U176G | 0.0319
11 | A111U A120C A145G C150U U176C | 0.25
12 | A111U A120C A145U C169U | 0.168
13 | A111U A120C A145U C169A | 0.0103
14 | A111U A120C A145U C169G | 0.00837
15 | A111U A120C A145G C150G C169A | 0.0087
16 | A111U A120C A145G C150G C169U | 0.0226
17 | A111U A120C A145G C150G C169G | 0.00738
18 | A111U A120C A145U C169A U176C | 0.0106
19 | A111U A120C A145U C169A U176A | 0.00962
20 | A111U A120C A145U C169A U176G | 0.0044
21 | A111U A120C C150A C169U | 0.0239

Row | Variant | reverse-splicing fitness
22 | A111U A120C C150A C169G | 0.00847
23 | A111U A120C C150A C169A | 0.0105
24 | A111U A120C A145C C169U | 0.164
25 | A111U A120C A145U C150U C169G U176G | 0.00445
26 | A111U A120C A145U C150U C169G U176A | 0.0113
27 | A111U A120C A145U C150U C169G U176C | 0.0102
28 | A111U A120C A145G C150A U176A | 0.0518
29 | A111U A120C A145G C150A U176G | 0.013
30 | A111U A120C A145G C150A U176C | 0.0785
31 | A111U A120C C150G C169G | 0.0073
32 | A111U A120C C150G C169U | 0.02
33 | A111U A120C C150G C169A | 0.00861
34 | A111U A120C C150G C169U U176A | 0.00853
35 | A111U A120C C150G C169U U176G | 0.00475
36 | A111U A120C C150G C169U U176C | 0.0162
37 | A111U A120C A145G C150G C169A U176C | 0.0123
38 | A111U A120C A145G C150G C169A U176A | 0.0117
39 | A111U A120C A145G C150G C169A U176G | 0.00732
40 | A111U A120C C150G C169A U176C | 0.0104
41 | A111U A120C C150G C169A U176A | 0.00901
42 | A111U A120C C150G C169A U176G | 0.00573

Row | Variant | reverse-splicing fitness
43 | A111U A120C A145U C150G C169U | 0.0242
44 | A111U A120C A145U C150G C169A | 0.00829
45 | A111U A120C A145U C150G C169G | 0.00662
46 | A111U A120C A145U C150U U176A | 0.194
47 | A111U A120C A145U C150U U176G | 0.0333
48 | A111U A120C A145U C150U U176C | 0.248
49 | A111U A120C C150A C169U U176G | 0.00713
50 | A111U A120C C150A C169U U176A | 0.0243
51 | A111U A120C C150A C169U U176C | 0.0196
52 | A111U A120C A145U C150G C169A U176C | 0.00757
53 | A111U A120C A145U C150G C169A U176A | 0.00913
54 | A111U A120C A145U C150G C169A U176G | 0.00497
55 | A111U A120C C150A C169A U176C | 0.0133
56 | A111U A120C C150A C169A U176A | 0.0178
57 | A111U A120C C150A C169A U176G | 0.00474
58 | A111U A120C A145U C150A C169A U176C | 0.00867
59 | A111U A120C A145U C150A C169A U176A | 0.0108
60 | A111U A120C A145U C150A C169A U176G | 0.00488
61 | A111U A120C A145U C150G C169U U176C | 0.0166
62 | A111U A120C A145U C150G C169U U176A | 0.0117
63 | A111U A120C A145U C150G C169U U176G | 0.00475

Row | Variant | reverse-splicing fitness
64 | A111U A120C A145U C150G C169G U176C | 0.005
65 | A111U A120C A145U C150G C169G U176G | 0.00491
66 | A111U A120C A145U C150G C169G U176A | 0.00683
67 | A111U A120C A145G C150G | 0.0716
68 | A111U A120C A145G C150U | 0.495
69 | A111U A120C A145G C150A | 0.0986
70 | A111U A120C A145G C150G U176A | 0.0125
71 | A111U A120C A145G C150G U176G | 0.00627
72 | A111U A120C A145G C150G U176C | 0.0344
73 | A111U A120C A145U C150A U176A | 0.034
74 | A111U A120C A145U C150A U176C | 0.0509
75 | A111U A120C A145U C150A U176G | 0.0114
76 | A111U A120C A145C C169U U176G | 0.00517
77 | A111U A120C A145C C169U U176C | 0.0419
78 | A111U A120C A145C C169U U176A | 0.0309
79 | A111U A120C A145G C169G U176C | 0.0229
80 | A111U A120C A145G C169G U176A | 0.019
81 | A111U A120C A145G C169G U176G | 0.00461
82 | A111U A120C A145U C150A C169U U176A | 0.0185
83 | A111U A120C A145U C150A C169U U176C | 0.0187
84 | A111U A120C A145U C150A C169U U176G | 0.00493
